The format of series [1] is physicochemical. On the procedure: To a volume of 500 µL n-octanol, 0.5 to 1.0 MBq of the radiolabeled PSMA inhibitor in 500 µL PBS (pH = 7.4) was added and rigorously vortexted for 3 min (n = 6). For quantitative phase separation, the mixture was centrifuged at 6,000 g for 5 min (Biofuge 15, Heraus Sepatech, Osterode, Germany).
For series [2], the target named is T1, human serum albumin (HSA) (Homo sapiens, UniProt P02768).
T1 construct: purchased Daicel Chemical Industries, purchased from Chiral Technologies Europe (France)
Type of series: in vitro ADME. From the text:
The Fmoc-(9-fluorenylmethoxycarbonyl-) and all other protected amino acid analogs were purchased from Bachem (Bubendorf, Switzerland) or Iris Biotech (Marktredwitz, Germany). […] The tritylchloride polystyrene (TCP) resin was obtained from PepChem (Tubingen, Germany). Chematech (Dijon, France) delivered the chelator DOTAGA-anhydride. All necessary solvents and other organic reagents were purchased from either Alfa Aesar (Karlsruhe, Germany), Sigma-Aldrich (Munich, Germany) or VWR (Darmstadt, Germany). Solid phase synthesis of the peptides was carried out by manual operation using an Intelli-Mixer syringe shaker (Neolab, Heidelberg, Germany). […] Analysis of the peptides was performed by applying different gradients of 0.1% (v/v) trifluoroacetic acid (TFA) in H2O (solvent A) and 0.1% TFA (v/v) in acetonitrile (MeCN) (solvent B) with a constant flow of 1 mL/min (specific gradients are cited in the text). […] Human serum albumin (HSA) binding was determined using a Chiralpak HSA 50 x 3 mm 5µm Analytical Column connected to a Chiralpak HSA 10 x 3 mm 5µm Guard Cartridge (Daicel Chemical Industries) purchased from Chiral Technologies Europe (France). Nonlinear regression for the HSA binding was performed using OriginPro 2016G. Both retention times tR as well as the capacity factors K' are cited in the text. […] Radioactivity was detected through connection of the outlet of the UV-photometer to a Nal(TI) well-type scintillation counter from EG&G Ortec (Munich, Germany). […] ESI-mass spectra were acquired on an expression^L CMS mass spectrometer (Advion Ltd., Harlow, UK) and on a Varian 500-MS IT mass spectrometer (Agilent Technologies, Santa Clara, USA). For the HSA binding experiment a Chiralpak HSA 50 x 3 mm 5µm Analytical Column, (Daicel Chemical Industries, LTD) connected to a Chiralpak HSA 10 x 3 mm 5µm Guard Cartridge (Daicel Chemical Industries; Chiral Technologies Europe) was used.
The mobile phase was freshly prepared for each experiment and only used for one day. The column was kept at room temperature and each run was stopped after detection of the signal to reduce the acquisition time. All substances were dissolved in a 0.5mg/ml concentration in 50% 2-Propanol and 50% 50mM pH 6.9 ammonium acetate buffer. […] All nine reference substances were injected consecutively to establish a non-linear regression with OriginPro 2016G. […] Table 1: Reference substances used for the calibration of the HSA-column.

Square brackets hold non-standard residues; d marks the D form. Peptide text beside a SMILES is read from it. * marks the point of attachment. X1 = O=C(O)CC[C@H](NC(=O)N[C@@H](CCCCNC(=O)CCCCCCC(=O)*)C(=O)O)C(=O)O; DOTAGA = O=C(O)CN1CCN(CC(=O)O)CCN(C(CCC(=O)*)C(=O)O)CCN(CC(=O)O)CC1; dPhe(4-NH2) = Nc1ccc(C[C@@H](N)C(=O)O)cc1; dTyr(3-I) = N[C@H](Cc1ccc(O)c(I)c1)C(=O)O; Phe(4-NH2) = Nc1ccc(C[C@H](N)C(=O)O)cc1; d2Nal = N[C@H](Cc1ccc2ccccc2c1)C(=O)O

T1 sequence (P02768 25-609): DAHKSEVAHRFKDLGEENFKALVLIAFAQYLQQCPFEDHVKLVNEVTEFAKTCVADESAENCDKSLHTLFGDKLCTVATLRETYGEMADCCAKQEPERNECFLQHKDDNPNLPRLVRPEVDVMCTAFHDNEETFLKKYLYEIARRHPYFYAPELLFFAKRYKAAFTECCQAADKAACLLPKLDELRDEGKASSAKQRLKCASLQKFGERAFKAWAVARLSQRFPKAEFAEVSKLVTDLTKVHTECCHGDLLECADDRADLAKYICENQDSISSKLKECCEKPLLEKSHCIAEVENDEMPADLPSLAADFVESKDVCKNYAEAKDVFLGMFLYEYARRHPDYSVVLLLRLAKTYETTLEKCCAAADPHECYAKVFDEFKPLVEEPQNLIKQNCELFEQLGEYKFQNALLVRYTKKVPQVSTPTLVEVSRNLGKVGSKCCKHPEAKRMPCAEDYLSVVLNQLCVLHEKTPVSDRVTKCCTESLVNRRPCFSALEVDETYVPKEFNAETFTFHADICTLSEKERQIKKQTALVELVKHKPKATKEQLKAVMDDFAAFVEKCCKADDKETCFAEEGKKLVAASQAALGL

`O=C(O)CC[C@H](NC(=O)N[C@@H](CCCCNC(=O)[C@@H](Cc1ccc(I)cc1)NC(=O)CCCC(=O)NCCCC[C@@H](NC(=O)[C@@H](Cc1ccc2ccccc2c1)NC(=O)[C@@H](Cc1ccc(O)cc1)NC(=O)CCC(C(=O)O)N1CCN(CC(=O)O)CCN(CC(=O)O)CCN(CC(=O)O)CC1)C(=O)O)C(=O)O)C(=O)O` (stereo partly drawn) [[^nat/177Lu]PSMA-10, DOTAGA-y-nal-k(Glut-(l-f)-KuE), metal not drawn, reference compound] gave a logP in series [1] of -3.05 ± 0.02. In series [2], the “HSA [%]” value amounted to 96.61%.
For the molecule `Nc1ccc(C[C@@H](NC(=O)CCC(C(=O)O)N2CCN(CC(=O)O)CCN(CC(=O)O)CCN(CC(=O)O)CC2)C(=O)N[C@H](Cc2ccc(O)c(I)c2)C(=O)N[C@H](Cc2ccccc2)C(=O)N[C@H](CCCCNC(=O)CCCCCCC(=O)NCCCC[C@H](NC(=O)N[C@@H](CCC(=O)O)C(=O)O)C(=O)O)C(=O)O)cc1` (stereo partly drawn) [[^nat/177Lu]PSMA-2, DOTAGA-(4-NH2)f-(l-y)-f-k-KuE, metal not drawn] ({DOTAGA}-[dPhe(4-NH2)][dTyr(3-I)][dF][dK](X1)-OH), the logP in series [1] was -4.11 ± 0.06. Moreover, the “HSA [%]” value in series [2] is recorded as 82.5%.
In the same order, the values of `O=C(O)CC[C@H](NC(=O)N[C@@H](CCCCNC(=O)CCCCCCC(=O)NCCCC[C@@H](NC(=O)[C@@H](Cc1ccc2ccccc2c1)NC(=O)[C@@H](Cc1ccc(O)cc1)NC(=O)CCC(C(=O)O)N1CCN(CC(=O)O)CCN(CC(=O)O)CCN(CC(=O)O)CC1)C(=O)O)C(=O)O)C(=O)O` (some centres unmarked) [[^nat/177Lu]PSMA-4, DOTAGA-y-nal-k-KuE, metal not drawn, reference compound] are -4.11 ± 0.06 and 82.6%.
Regarding `Nc1ccc(C[C@H](NC(=O)CCC(C(=O)O)N2CCN(CC(=O)O)CCN(CC(=O)O)CCN(CC(=O)O)CC2)C(=O)N[C@H](Cc2ccc(O)cc2)C(=O)N[C@H](Cc2ccc3ccccc3c2)C(=O)N[C@H](CCCCNC(=O)CCCCCCC(=O)NCCCC[C@H](NC(=O)N[C@@H](CCC(=O)O)C(=O)O)C(=O)O)C(=O)O)cc1` (some centres unmarked) [[^nat/177Lu]PSMA-6, DOTAGA-(4-NH2)F-y-nal-k-KuE, metal not drawn] ({DOTAGA}-[Phe(4-NH2)][dY][d2Nal][dK](X1)-OH), in series [2], the “HSA [%]” value turned out to be 83.17%.
In the case of `Nc1ccc(C[C@H](NC(=O)CCC(C(=O)O)N2CCN(CC(=O)O)CCN(CC(=O)O)CCN(CC(=O)O)CC2)C(=O)N[C@H](Cc2ccc(O)c(I)c2)C(=O)N[C@H](Cc2ccccc2)C(=O)N[C@H](CCCCNC(=O)CCCCCCC(=O)NCCCC[C@H](NC(=O)N[C@@H](CCC(=O)O)C(=O)O)C(=O)O)C(=O)O)cc1` (stereo partly drawn) [[^nat/177Lu]PSMA-3, DOTAGA-(4-NH2)F-(l-y)-f-k-KuE, metal not drawn] ({DOTAGA}-[Phe(4-NH2)][dTyr(3-I)][dF][dK](X1)-OH), the “HSA [%]” value in series [2] was 91.9%.

One may read the logP as a log measure of how a compound divides between an organic and an aqueous phase. Low readings indicate lower lipophilicity, high ones higher lipophilicity.

Source of the values: patent publication EP3494999A1, “PSMA LIGANDS FOR IMAGING AND ENDORADIOTHERAPY” (Technische Universität München, priority 2017, dated 2019).
